{
  "source": "patent US20150166611A1",
  "key": {"[1]": {"target": "HIV-1 Env (NL4-3) labeled with Cy3 at the LV4-2-A1 loop insertion, on virions (HIV-1 NL4-3)", "assay": "intermolecular smFRET; high-FRET state assigned to CD4 bound to the Cy3-labelled gp120"}, "[2]": {"target": "wild-type HIV-1NL4-3 Env (unlabeled gp120 protomers of the trimer on virions) (HIV-1 NL4-3)", "assay": "intermolecular smFRET; CD4 bound to an unlabeled gp120 of the trimer, donor Cy3 on the neighbouring labelled gp120"}},
  "data": [
    {"substance": "Cy5-labeled soluble CD4(C92) (D1-D2) (from UniProt P01730 26-208) (receptor)", "values": [
      {"measurement": "FRET state (high) (FRET efficiency)", "setting": "[1]", "value": 0.85},
      {"measurement": "FRET state (intermediate) (FRET efficiency)", "setting": "[2]", "value": 0.3},
      {"measurement": "FRET state (low) (FRET efficiency)", "setting": "[2]", "value": 0.2}
    ]}
  ]
}
